Experimental data as given in the supplement of paper PMC9170038.

Tested on: MS2 coat protein
Experiment: apparent KD of MS2 coat protein; designed switch direction (-1 OFF switch, 1 ON switch): -1; higher = weaker reporter binding
Summary of the method: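 Designed RNA switches were transcribed on Illumina chips by stalled E. coli RNA polymerase and titrated with SNAP-549-labelled MS2 coat protein from 0.7 or 1.5 nM, doubling to 3 µM. Step length ran from 0.8–1.5 h at the lowest concentration to 10–20 min at the highest. The apparent KD is the median over clusters for each design, from curve-fitted normalised cluster fluorescence.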

[1] = Eterna round: R95, input ligand: FMN 200 uM
[2] = Eterna round: R95, input ligand: microRNA oligo, concentration not stated
[3] = Eterna round: R95, input ligand: none
[4] = input ligand: microRNA oligo, concentration not stated

| Sequence | apparent KD of MS2 coat protein [1] | apparent KD of MS2 coat protein [2] | apparent KD of MS2 coat protein [3] | apparent KD of MS2 coat protein (input ligand: FMN 200 uM) | apparent KD of MS2 coat protein (input ligand: none) | apparent KD of MS2 coat protein [4] |
| --- | --- | --- | --- | --- | --- | --- |
| AAAAUGGUCUAGGAUAUGACAAAUCUGAUCACGUCAGAAGGAGACACAUGAGGAUCACCCAUGUGGGUGCGAAA [Qureenan] (puzzle: Exclusion 6) | 130 nM | 44.4 nM | 39.5 nM | – | – | – |
| UCUUUGUGAGGAUAUCAGUAGUAAAUAAAUAAAAUUACUACUGAGAAGGCACAUGAGGAUCACCCAUGUUCCUU [salish99_ex3_r3_091] (puzzle: Exclusion 4) | – | 13.5 nM | – | – | – | – |
| AGGUCAUUAGGAUAUGUCGAAUAUGACAUGAGGAUCACCCAUGUGGUAGGCAUGUCGUAGACAGAAGGAGUGUAAA [Laqureis] (Eterna round: R97, puzzle: Exclusion 5) | – | – | – | 219 nM | 75.9 nM | – |
| AGUAACCGUCACGAAAGUGAUGGUUACACAAGCAAAUGUACAUGAGGAUCACCCAUGUCCUCAAUUGCUCGUCUUAU [Sensor 3 - 50] (puzzle: Sensor v3, turn-off variant 2) | 106 nM | 165 nM | 137 nM | – | – | – |
| GCCUUAUCCGUCAGGAUAUACAGCCGCUCGUUGUUGUAGAAGGGACAUGAGGAUCACCCAUGUACGUACCAUUG [alecazam4] (Eterna round: R97, puzzle: Brourd's mod of Exclusion 4) | – | – | – | 27.2 nM | 22.7 nM | – |
| GCCUUAUCUGUCAGGAUAUACAAUAAAAUUUUUUUGUAGAAGGGACAUGAGGAUCACCCAUGUACAUUACAUUG [alecazam22] (Eterna round: R97, puzzle: Brourd's mod of Exclusion 4) | – | – | – | 315 nM | 49.7 nM | – |
| AACCUAAGGCAAAGCUUUAGGUGUACAUGAGGAUCACCCAUGUAGGAUAUGGUAGGCAAAGCUUACCAGAAGGACAUUAUGAUA [Mat - Exclusion NG 3 - Mod of JL - D53] (Eterna round: R96, puzzle: Exclusion NG 3) | – | – | – | 82.1 nM | 55.2 nM | 27.5 nM |
| ACAUGAGGAUCACCCAUGUUAUGUUGGGUACUAAAUUAUUCGUAGGAUAUCGUAGCUAGUUUGUGCGAGAAGGACGCAUUUUUU [JR_ExcNG3_Sub059] (Eterna round: R96, puzzle: Exclusion NG 3) | – | – | – | 205 nM | 273 nM | 229 nM |
| UAUUAGCAAGCAAGAUCCCACAUGAGGAUCACCCAUGUGCUCGUCUUAAGCCCAGAAUUACUGGGCGCUCGUCUUAU [Winner reversed engineered 22] (Eterna round: R97, puzzle: Sensor, turn-off variant 1) | – | – | – | 30.3 nM | 28.4 nM | – |
| GGUUGACAUGAGGAUCACCCAUGUGAGGAUAUGCGAGAGAAAAAAGUGAGGAAGAAGAGCAGAAGGCGCUGUCG [salish99-ex1_r3_012] (puzzle: Exclusion 1) | 99.4 nM | 134 nM | 117 nM | – | – | – |
| UAUUAGCAAGUGAGAUCCGACAUGAGGAUCACCCAUGUGCUCGUCUUAUAAGGUACUGUGACAAAAGUCACGGUACC [Elimod 2 - Jieux - Sensor, turn-off variant 1] (Eterna round: R97, puzzle: Sensor, turn-off variant 1) | – | – | – | 200 nM | 283 nM | – |
| ACAUGAGGAUCACCCAUGUCAGGCGGGUCCACUCCGGCUGUUGAGGAUAUAGUCCGGUAUCCGCGCUAGAAGGUGAGGGCCGGC [Aenatbe mod 24] (Eterna round: R96, puzzle: Exclusion NG 3) | – | – | – | 20.6 nM | 19.9 nM | 15.4 nM |
| GAUCAUGCAGGAUAUGCAGUAACCAUGAAAACAUGGUUGCAACAUGAGGAUCACCCAUGUAGAAGGGCAUGAUC [Omei Ex2 A3] (Eterna round: R97, puzzle: Exclusion 2) | – | – | – | 10.8 nM | 13.9 nM | – |
| UUAACAUGCUGGUGAUCAUACAUGAGGAUCACCCAUGUAACAAGCUUUUUGCUCGUCUUAUAAGAUUACUAGUAUGU [Stov1/10-A1] (Eterna round: R97, puzzle: Sensor, turn-off variant 1) | – | – | – | 24.2 nM | 26.4 nM | – |
| CUAGCGAGUGUAGGAUAUCGGACUGUUUCAGUCUGAGAAGGACAUGAGGAUCACCCAUGUAUUGCUGCGUGAGUAGCACGCUAG [JL ENG1 3.99] (Eterna round: R96, puzzle: Exclusion NG 1) | – | – | – | 32.4 nM | 19.5 nM | 15.6 nM |
| CAGGAUAGAGGAUAUACAUAGAUACAGAUUCAUAUAAUCCUACAUGAGGAUCACCCAUGUAGAAGGCUAUCCUG [Fiskers Ex 2 - 25] (puzzle: Exclusion 2) | – | 14.5 nM | – | – | – | – |
| GGUUGGCGAGGAUAUACAUGAGGAUCACCCAUGUGAUCCUAAGGCUGAUCAAGCCUAUGUAGAAGGCGCAAAUC [salish99_ex3_r4_009] (Eterna round: R97, puzzle: Exclusion 3) | – | – | – | 49.7 nM | 260 nM | – |

| Sequence | apparent KD of MS2 coat protein [1] | apparent KD of MS2 coat protein [2] | apparent KD of MS2 coat protein [3] | apparent KD of MS2 coat protein (input ligand: FMN 200 uM) | apparent KD of MS2 coat protein (input ligand: none) | apparent KD of MS2 coat protein [4] |
| --- | --- | --- | --- | --- | --- | --- |
| GAGGCCAUAGGAUAUCUGUUACGGGACAUGAGGAUCACCCAUGUACUGGCAAGUCCUCGGAGAGAAGGAUGACUCU [Eternabot (L1) Solution 68] (Eterna round: R97, puzzle: Exclusion 5) | – | – | – | 21.9 nM | 18.3 nM | – |
| CCAGGCAGUGUGAGGAUAUGCUGGUCCUUGGAUCAGCAGAAGGCACAUGAGGAUCACCCAUGUGAAUAGCUUGG [JL bmx4 3.25] (puzzle: Brourd's mod of Exclusion 4) | 105 nM | 20.5 nM | 21.8 nM | – | – | – |
| AGGUAGUCAGGAUAUUAAGAGUAGCGGGAUAACGCUACGAGUGAGAAGGGACAUGAGGAUCACCCAUGUUUAUU [JR_Ex4_Sub070] (Eterna round: R97, puzzle: Exclusion 4) | – | – | – | 23 nM | 24.8 nM | – |
| GUUUGACAUGAGGAUCACCCAUGUGAGGAUAUACGAUUAGCUGCUAGGUAGUUAGUAUGUAGAAGGUGCGUGUU [EX1 #69] (Eterna round: R97, puzzle: Exclusion 1) | – | – | – | 97.9 nM | 117 nM | – |
| CUUGUUUAUGUAGGAUAUGCCUGGCGUGCCUUUGCAGAAGGACAUGAGGAUCACCCAUGUAACAUGAGGCUCACCCAUGUCGCC [salish99_ExNG1_r04_107] (Eterna round: R96, puzzle: Exclusion NG 1) | – | – | – | 142 nM | 153 nM | 94.8 nM |
| CCAGCGCGUGUGAGGAUAUGCUGGUCCUUGGAUCAGCAGAAGGCACAUGAGGAUCACCCAUGUGAGUGCGUUGG [JL bmx4 3.35] (puzzle: Brourd's mod of Exclusion 4) | – | 16.2 nM | – | – | – | – |
| GAGAAGGUAGGAUAUACGAAGAAAGAGGGUAGUAAUAAUACACAUGAGGAUCACCCAUGUAGAAGGACCAAGAG [Mat - Exclusion 2 - Mod of my Tesla design - D45] (puzzle: Exclusion 2) | 35.9 nM | 24.7 nM | 21.7 nM | – | – | – |
| UAUAUAUAGUAAGGAUAUGUAUUUAUGUUAUAAACAGAAGGUACUGACAUGAGGAUCACCCAUGUUUUAGUGUGGGCAUGUAGA [JMF's solution 16] (Eterna round: R96, puzzle: Exclusion NG 1) | – | – | – | – | – | 76.3 nM |
| UAGAAUCGAGGAUAUACAUGAGGAUCACCCAUGUGUUGCCGCAUGAUGUGAUCGUCAGGUAGAAGGCGAUUAUA [Exclusion 3 - Mod of Jieux's Gilly Gone Silly 23 v.7] (puzzle: Exclusion 3) | – | 35.4 nM | – | – | – | – |
| AGUACUAACACGUGAGUGUUAGUACAAUAAGCUUGUGAAACAUGAGGAUCACCCAUGUCCUCAUAAGCUCGUCUUAU [salish99_TOv2_r3_061] (puzzle: Sensor v3, turn-off variant 2) | 17.4 nM | 1070 nM | 15.6 nM | – | – | – |
| AUAAUGUAAGGAUAUCAGUCGACUAGCUGCGGCUAGUCGACUGAGAAGGUACAUGAGGAUCACCCAUGUGAAUA [E4/16-A3] (Eterna round: R97, puzzle: Exclusion 4) | – | – | – | 224 nM | 41.7 nM | – |
| AGGUGUAGAGGAUAUUGAGUUCUUUACAUGAGGAUCACCCAUGUCCUGGGCACCCAGGACCAAGAAGGCUACACCA [Omei Ex5 D31] (Eterna round: R97, puzzle: Exclusion 5) | – | – | – | 38.4 nM | 72.6 nM | – |
| UCACGGGACUAAGGAUAUAUGAGAGCCAUUAACAUAGAAGGUAGAAUGUUAGAUCAUAAACUAAACAUGAGGAUCACCCAUGUU [JR_ExcNG1_Sub093] (Eterna round: R96, puzzle: Exclusion NG 1) | – | – | – | 19.6 nM | 23.2 nM | 20.2 nM |
| GAUUGACAUGAGGAUCACCCAUGUGAGGAUAUCGGCUGGACCGUGUUGGCUUGCUUCUCGAGAAGGCGCAUAGG [Exclusion 1 V51] (puzzle: Exclusion 1) | 32.7 nM | 33.9 nM | 36 nM | – | – | – |
| AAAACGGUUCUCGUGAGGUACAUGAGGAUCACCCAUGUGAGUCAGGAUAUCCCGUCCAAGUGCGAGGAGAAGGGACGCACUUGG [Esesence] (Eterna round: R96, puzzle: Exclusion NG 3) | – | – | – | 190 nM | 110 nM | 103 nM |
| GGAAUACAUGAGGAUCACCCAUGUAAGGAUAUGCUGAAUAACACGGAAUAAUCGUGCAGCAGAAGGUACAAAGG [Mat - Mod of my Eli Mod D45] (puzzle: Exclusion 1) | – | 86.3 nM | – | – | – | – |
